Measured values from the DeepSol protein solubility set.

Test: soluble on expression in E. coli; label from the status in PepcDB or PDB records

Soluble on expression in E. coli, not soluble:
MGSDKIHHHHHHMKKIHGKVMVERHHLEILRAVERQGSLTAAAEQLHLTQSALSHAIRKLEQQLGTSVWLREGRQLRLTQAGHQLLALANRLLPQFEHAEMQIHQIAQGQRGSLRVGMECHPCYQWLLKVVGPYLQQWPDVDVDVKQEFQFGGMGALFGHDIDLLVTPDPLHKPGVRFEPVFDYEQVLVVSEDHSLADEKWVEPHQLEKETLITYPVAVERLDIFTRFFLPAHTAPARHKTIETTDIMLQMVAAGRGVSALPRWLVDDYARNMPIRALKLGQQGMPKQIFLGFRERDEAVDYLNAFVKLARSIRWN
MGSDKIHHHHHHMKKKSMIVLTSAFVLLSAFSCGGGGKATGTNEQSEKVVVNVPQFDADSAYLYVKNQVDFGPRVPNTKEHVACGNYLAGKLEAFGAKVTNQYADLIAYDGTLLKARNIIGSYKPESKKRIALFAHWDTRPWADNDADEKNHHTPILGANDGASGVGALLEIARLVNQQQPELGIDIIFLDAEDYGTPQFYEGKHKEEAWCLGSQYWSRNPHVQGYNARFGILLDMVGGENSVFLKEGYSEEFAPDINKKVWKAAKKAGYGKTFIDERGDTITDDHLFINRLARIKTIDIIPNDPETGFPPTWHTIHDNMDHIDKNTLKAVGQTVLEVIYNEK
MGSDKIHHHHHHMKKLIAIDLDGTLLNEKSTISEENTESLQRAQEAGMEVVIATGRAYFDVIDLLKPTGMHPWVIGANGATIHDPTGRRLLSIPLEHKQAIEILHWLEGKHFYYEVFSDEAIFTPQNGRELLAIEMDRLVSANPQTDLGTLSQAAAKQFSQTGFSYVSSYRDLLDTEVNIYNILAFSFDDQKLAKGWDRFKQTDNVTLVTSAEHNFELEHPLASKGNALTWLAKHLHIPLEHTVAIGDSMNDYSMITIAGYSIAMGNARAEIKQISHEVTLSNYEHGVSHSIERLLAAKRLGQN
MGSDKIHHHHHHMKKQWNEFVRDRMSEKNLKQEDIAEAIERTQGAVGHWLTGRRSPNFMEVAKMLNATGTDQVILNSDGTIEDIEFIGIPKKGLVKVIGEATMGTDGSVDIEEIHVGYIDIFTTDPKAFCLRVKGSSMEPRIHSGEFVLVEPQSPFSNGDDVFIRTKDGKNMIKILDYQKDGEYRFSSINNDHKPFNLAIDEVELVYYVAGILKKSRFVDLEP
MGSDKIHHHHHHMKKTERINDMLIFLNNKRYFNLKDLMVRYDISKSTALRDIQSLEEIGVPIYSELGRNGSYKIIENSVLSPIYFSVDEMYALYFSILTLNGYKTKPFNIESIALENKFKHVLPDNVRKNIAIMERTLSFEVTNHSNFSPFLKEILQGIFAERVYHLTYLKKDVEKALIAQFIRIESKFGQWYAKIFNFETNNVQIIRCDKILSIVETSNTKPKNLEELLNYLATFHRKPDAIDFIVIVNQRGKDIFDKENYPSMRIQKENEHYIITGYFNKQEVDLSRTIF
MGSDKIHHHHHHMKKTIIISMLLAAGAATYYFTQQTETPKGPRGRPTPNVVVAKAEMQPIRDEVEALGTGKANESITVTPKVTDMVTEINFNDGQMVDKGQLLVRLQDREQIARVTVARVKMKDHERELARISSLVTSQTVAALERDRLQTLIDTAKAELDQAESSLKDRRILAPFSGRLGLRQVSQGSLVTPGTVITTLDDISTIKLDFSVPERFLQSLAIGKSVEASAVAFEGELFTGKVVSVDSRINPTTRAVTVRAEIPNKGMRLLPGMLMKVKLIKQSREALIIPEAAIIPIQKDHFVYLVNDENVVERRQVQLGLRKRGWVEIVGGVDVGEQVMVRGILKVRPGDTVKVQYSEHFSFNQQAKVEPLA
MGSDKIHHHHHHMKKVNYAAIDIGSNAVRLLIKCVNEENAPELMSKVQLIRIPLRLGEDAFTMGVISAEKEKKLIRLMKAYKQLMKIYDVVDYRACATSAMRDARNGKDIARQIARKTGIRVDIIDGQEEAHIVYDNHIEQLFASGQNYLYVDVGGGSTEINLISNGELKNSRSYNIGTVRMLSGMVKEEEKEALRTDLIGLAAEYAPTSIIGSGGNINKLFRLADKKDKKASLLPVESLREIYEALQALPAEQRIKQYKLKPDRADVIVPAAEIFLEVAMNVKATGIIVPTIGLSDGIIDSLYTQKMNTPVAPKVQ
MGSDKIHHHHHHMKLDDCQLLIHVHKAGTMRGAARSLHLSQPAISQRLKQMEDLWGGAIFIRTHKKLLLTPLGEKVLTFAQETLWRTERLREELEQMKGSVSGRLSLGISSVVSHYLIPPLLEKYTKAYPRVNIELISTTSDQIRRTFSSYHVAIFRGDRLPEQASHLLLADPLYLVFDKDIPIEKRPLIQWKSDPSLEALIQAWMRSVTSFTFRGHVSVDQIETCKQLMLRGVGAAILPEMAIKDVSDQCFHKLPLQLDNQPLERQTWVLYEEEALSLPQVEAFLQLLPLK
MGSDKIHHHHHHMKLDLVRFFQACNPSKTLVVSKPEDRQYYIDFSKVRGAKIIEELGRTITRLSPEQPTCQLFTGHIGCGKSTELLRLKAELEQQGFHVVYFESSQSLDMADIDVTDILLAVAREVSQSLEAIKINLKPGYFKNLFTEISEFLQTPLDIGVEAELSVGIAKITAKTKDSPKLRGQLRQYLEPRTNGILESINKELLKPAREKLKQEGKKGLVVIIDNLDRVDNSLKPSGYYQPEYLFVERGEQLNQLNCHVVYTIPLVLIFSNALGRLINRFGIDPKVLPMVPVQVQDGSQFLQGITLLQQMVMARAFPGVSWEQSRHLITEVFDSLDTLERLCRVSGGHLRNLLMLLFRCLQQEDPPLSRECVDRVIKQRRNELTLAITPDEWELLHEVAQEKNLRGHERYDLLLRSMFVFEYRDEDGSWFDINPILAEAKEFRL
MGSDKIHHHHHHMKLGILEKYRRFLPVTDKTPMLSLNEGNTPLIPLVNMSRELGINIYVKYEGSNPTGSFKDRGMVVAVAKALEEGSKAIMCASTGNTSASAAAYAARAGIKAIVLIPEGKIALGKLAQAMIYGAVVLQVRGNFDKCLELVKEITSKYPITLVNSINPYRLEGQKTAAFEIVDELGDAPDYHFIPVGNAGNISAYWMGYKEYYQHGFSTKLPKMMGFQAEGAAPIVRGHPIENPETVATAIRIGNPANWEKAVRARDESGGDIDMVSDEEILRAQRLLAQKEGIFCEPASAASIAGLLKKHRQGIFRGGEIVVCTLTGNGLKDPNIVISQLEPPRIIEGRVEEILEVLDI
MGSDKIHHHHHHMKLGTQNQAFFPENIEEKFAYVKEMGFEGFEIDGKLLVENLDEVKKAIEKTGLPVSTACGGYDGWIGDFIEERRLNGLEEIKAILEALAEVGGQGIVVPAAWGMFTYRLPPMVSPRSQAGDFKAVSESLVYLDKIAGETGTKVYLEPLNRYQDHMINLLSDAQKYIDENELKNVEIIADFYHMNIEEDSIPTVLETYKDSIGHIHVADNHRYQPGSGSLDFKTSFDQLKKNGYNGFLTFECRVRSENPEQAYKDALAHLKSCLI
MGSDKIHHHHHHMKLICEKELCTGCGLCAARCPKHSISLVAEELGHLYPSVDQKKCIDCGLCQKACPSLHDTVCLYPSVAYAAWSKDEEDYRSSTSGGMASVLTHYFLANVGIVYGCTVIPGIEIKHIRIDNLKDAYKLKGSKYVQSSIVDVLSQIRQDVKDGTNVLFIGTPCQVTAVKRMYEEQPDNLFLVDLICHGVPSNKWLVDYIANTLKIKADKVSSIGFRLFEAFSLCVYNDDRLIYKSGDLWTHRYEDLYYNTFIDGFTYRDSCFNCHYAKPERVSDITIGDFWGLGNETDDNYIPKHPYGISCVLPLTEKGKRLISIVKDKLNIYERPVTEAINGNDQLRFPKKKNLRIKFFRRIHKYIGVDAAYKLCVCDKIVKYKIRKIIR
MGSDKIHHHHHHMKLKFLGGAEEVGRLGVKITDKDTSVIVDYGVIPEKPPQYPLPPEPVDAMFITHSHLDHIGAVPVYYHKGEPDLYATQMTLNTMKPLLRDALKVTNIEGYPAMFNEDDINSALANMRPARYFESIEVGNMVATPYPAGHIPGSTMWKFEDGISVTVTGDVNTIDTYLINGAKPIKTDVLIIESTYAGKNHESREDVRKRFRDSVKEVIDSGGKVIMPAFAVGRTQELIMTIADMGYDVAVDGMGNDISTIYLNTPGFLRSKKEFLRALSKVRIIKGRNMRENAIRSDIIISTSGMLDGGPVLGYIQKLLEDEKSAIFVTGYQVEGTNGRSLLETGTLTIAGVTVKPKMRVEFFDMSAHAGHDELVNFIKAIDPKKIVLCHGDHRENLLPDLEGYDVLLPYNGKEYEI
